Data taken from patent publication US8969060B2, “Modified glucose dehydrogenase” (Ikeda Food Research Co., Ltd., priority 2011, dated 2015).
Residue numbers refer to the chain shown, from its start. Numbers in names are those of the source. Where “and” joins values, the source holds several entries; their conditions need not be identical. Identical values can stand only once.

B1: F432L: modified GLD: SEQ ID NO: 1 with substitution F432L (protein, listed as Aspergillus terreus)
chain: MLGKLSFLSALSLAVAAPLSNSTSAKYDYIVIGGGTSGLAVANRLSEDPNVNVLILEAGGSVWNNPNVTNVDGYGLAFGSDIDWQYQSVNQPYGGNLSQVLRAGKALGGTSTINGMAYTRAEDVQIDAWETIGNTGWTWKNLFPYYRKSENFTVPTKSQTSLGASYEAGAHGHEGPLDVAFTQIESNNLTTYLNRTFQGMGLPWTEDVNGGKMRGFNLYPSTVNLEEYVREDAARAYYWPYKSRPNLHVLLNTFANRIVWDGEAHDGHITASGVEITSRNGTVRVINAEKEVIVSAGALKSPAILELSGIGNPSVLDKHNIPVKVNLPTVGENLQDQVNSHMDASGNTSISGTKAVSYPDVYDVFGDEAESVAKQIRANLKQYAADTAKANGNIMKAADLERLFEVQYDLIFKGRVPIAEVLNYPGSATSVLAEFWALLPFARGSVHIGSSNPAEFPVINPNYFMLDWDAKSYVAVAKYIRRSFESYPLSSIVKESTPGYDVIPRNASEQSWKEWVFDKNYRSNFHPVGTAAMMPREIGGVVDERLNVYGTTNVRVVDASVLPFQVCGHLVSTLYAVAERAADLIKADAGRR
modifications: SIGNAL (1)..(19)
B2: H341W: modified GLD: SEQ ID NO: 1 with substitution H341W (protein, listed as Aspergillus terreus)
chain: B1 chain with H341W, L432F
modifications: SIGNAL (1)..(19)
B3: G426D: modified GLD: SEQ ID NO: 1 with substitution G426D (protein, listed as Aspergillus terreus)
chain: B1 chain with G426D, L432F
modifications: SIGNAL (1)..(19)
B4: G426A: modified GLD: SEQ ID NO: 1 with substitution G426A (protein, listed as Aspergillus terreus)
chain: B1 chain with G426A, L432F
modifications: SIGNAL (1)..(19)
B5: F432R: modified GLD: SEQ ID NO: 1 with substitution F432R (protein, listed as Aspergillus terreus)
chain: B1 chain with L432R
modifications: SIGNAL (1)..(19)
B6: G426C: modified GLD: SEQ ID NO: 1 with substitution G426C (protein, listed as Aspergillus terreus)
chain: B1 chain with G426C, L432F
modifications: SIGNAL (1)..(19)
B7: Wild-type: wild-type FAD-conjugated glucose dehydrogenase (GLD) of Aspergillus terreus FERM BP-08578, SEQ ID NO: 1 (protein, listed as Aspergillus terreus)
chain: B1 chain with L432F
modifications: FAD cofactor; SIGNAL (1)..(19)

What was measured:
Type in all cases: biochemical
[1] = Relative enzymatic activity of GLD (DCIP/1-m-PMS, plate reader, yeast culture supernatant) with 1,10-phenanthroline present; conditions: for Relative Activity: random-mutation mutants, sample value with inhibitor at 1 mM / blank value, inhibitor not named in Table 1; for Relative Activity [%] 1,10-Phenanthroline: site-specific mutants, inhibitor final concentration 1 mM
How it was run: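 Inhibitor at 1 mM final substitutes for the methanol in the reagent, and the sample rate is expressed as % of the inhibitor-free blank. Rates come from ΔA600/min of DCIP with glucose and 1-m-PMS at pH 7.0, using supernatants of YPD-grown yeast clones (24 h, 30° C.).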

[2] = Relative enzymatic activity of GLD (DCIP/1-m-PMS, plate reader, yeast culture supernatant) with proflavin hydrochloride present; conditions: site-specific mutants, inhibitor final concentration 1 mM
How it was run: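 Culture supernatant diluted and mixed with reagent of phosphate buffer pH 7.0, 1.0 M D-glucose, 3 mM DCIP, 3 mM 1-m-PMS and methanol (0.1:1:0.14:0.2:0.06). DCIP absorbance decrease at 600 nm followed; proflavin hydrochloride in methanol replaced methanol at 1 mM final. Activity expressed as % of inhibitor-free blank.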

[3] = Susceptibility of purified enzyme to 1,10-phenanthroline (spectrophotometer); conditions: inhibitor 1 mM
Method: (§1) 1.0 mL of 0.1 M potassium phosphate buffer (pH 7.0), 1.0 mL of 1.0 M D-glucose, 0.14 mL of 3 mM 2,6-dichlorophenol indophenol (hereinafter referred to as DCIP), 0.2 mL of 3 mM 1-methoxy-5-methylphenazinium methylsulfate (hereinafter referred to as 1-m-PMS), 0.06 mL of methanol and 0.55 mL of distilled water are added to a 3-mL quartz cell (light path length: 1 cm), and the cell is placed in a spectrophotometer provided with a thermostat cell holder and incubated at 37° C. for 10 minutes. Thereafter, 0.05 mL of an enzyme solution is added to the cell, and then, a change in the absorbance of DCIP at 600 nm (ΔABS/min) is determined. The molar extinction coefficient of DCIP at pH 7.0 is taken as 16.3×10^3 cm^−1 M^−1, and enzymatic activity to reduce 1 μmol of DCIP per minute is substantially equivalent to 1 unit of the enzymatic activity. Therefore, the enzymatic activity is determined from the change in the absorbance according to Equation I. In Example 8, methanol was replaced with the same amount of distilled water.
(§2) In the following examples, a value of the enzymatic activity determined by the spectrometer or plate reader using the above reagent composition is considered as a blank value. On the other hand, a sample value is determined using a methanol solution comprising the inhibitor such as 1,10-phenanthroline or proflavin hydrochloride at a final concentration of 1 mM instead of the methanol. Enzymatic activity (unit/mL)=(−ΔABS/16.3)×3.0/0.05×(Dilution ratio of enzyme) [Equation 1]
(§3) The mutants having the mutation of H341W and F432L, respectively, were inoculated into a shake flask containing 150 mL the YPD medium. After shaking culture at 30° C. and 120 rpm for 48 hours, the culture mixture was centrifuged at 3,000×g for 5 min. and the supernatant was filtered through a membrane filter with 10 μm. […]
(§4) After diluting the purified enzyme to an appropriate concentration, the sample value and blank value were determined in accordance with the method for determination of the enzymatic activity using the spectrophotometer.

[4] = Susceptibility of purified enzyme to proflavin hydrochloride (spectrophotometer); conditions: inhibitor 1 mM
Method: as §1, §2, §3, §4

[5] = Susceptibility to 1,10-phenanthroline at a high concentration
Method: as §1
The enzymatic activity is determined in the following manner in Examples 3 and 6 wherein a plate reader (Japan Molecular Device Corporation, SpectraMax Plus384) is used. Thus, culture supernatant that had been diluted in advance with an appropriate magnification is added to a 96-well microplate with an amount of 100 μl per well. A reagent for the determination of the enzymatic activity comprising phosphate buffer (pH 7.0), 1.0 M D-glucose, 3 mM DCIP, 3 mM 1-m-PMS and methanol with a volume ratio of 0.1:1:0.14:0.2:0.06 is added to the 96-well microplate with an amount of 100 μl per well, and a change in the absorbance of DCIP at 600 nm (ΔABS/min) is then determined. The enzymatic activity can be calculated by conversion in proportion to a change in the absorbance of an enzyme solution for which the enzymatic activity has already been known by the above-mentioned activity determination procedure using the spectrophotometer.
as §2
The relative activity was determined in the same manner as in Examples 3 and 6 in the co-existence of the inhibitors at a high concentration.

[6] = Susceptibility to proflavin at a high concentration; conditions: final conc. 2 mM
Method: as §1, with “The molar extinction coefficient of DCIP at pH 7.0 is taken as 16.3×10^3 cm^−1 M^−1, and enzymatic activity to reduce 1 μmol of DCIP per minute is substantially equivalent to 1 unit of the enzymatic activity.” left out
The enzymatic activity is determined in the following manner in Examples 3 and 6 wherein a plate reader (Japan Molecular Device Corporation, SpectraMax Plus384) is used. […] A reagent for the determination of the enzymatic activity comprising phosphate buffer (pH 7.0), 1.0 M D-glucose, 3 mM DCIP, 3 mM 1-m-PMS and methanol with a volume ratio of 0.1:1:0.14:0.2:0.06 is added to the 96-well microplate with an amount of 100 μl per well, and a change in the absorbance of DCIP at 600 nm (ΔABS/min) is then determined. […]

Molecule | Relative Activity [1] [%] | Relative Activity [%] 1,10-Phenanthroline [1] | Relative Activity [%] Proflavin hydrochloride [2] | Relative Activity [%] 1,10-Phenanthroline [3] [%] | Relative Activity [%] Proflavin hydrochloride [4] [%] | Relative Activity[%] ([5]; final conc. 1 mM) | Relative Activity[%] ([5]; final conc. 5 mM) | Relative Activity[%] ([5]; final conc. 10 mM) | Relative Activity[%] ([5]; final conc. 20 mM) | Relative Activity[%] [6] [%]
B1 | 80.4 | 91.7% | 68.1% | 90.8 | 88.1 | 97.0 | 64.2 | 47.2 | 32.1 | 91.6
B2 | – | 100.3% | 88.4% | 89.5 | 144.3 | 99.4 | 78.1 | 63.2 | 45.8 | 138.2
B3 | – | 56.5% | 34.2% | – | – | – | – | – | – | –
B4 | – | 68.7% | 51.2% | – | – | – | – | – | – | –
B5 | – | 86.2% and 94.2% | 73.7% and 72.6% | – | – | – | – | – | – | –
B6 | – | 78.0% | 64.1% | – | – | – | – | – | – | –
B7 | 25.7 | 30.0% | 35.0% | 41.1 | 50.9 | – | – | – | – | –
